We go through three substances from article doi:10.1101/2020.11.20.391094.

Assay [1] has as its target His-SctV-C, isolated C-terminal cytoplasmic domain of EPEC SctV (enteropathogenic E. coli (EPEC)). Description: native MS.
The target is the same in assay [2]. Put plainly: SEC-MALS.
For assay [3] the target is unchanged. Description: native gel or EMSA.
The target in assay [4] is His-SctV, full length, synthesized in C41; also reconstituted in peptidiscs (His-SctV9-PR) (enteropathogenic E. coli (EPEC)). Put plainly: SEC-MALS. A general note: SEC sorts molecules by how far they enter the pores of the column.
For assay [5] the target is unchanged. Put plainly: native gel or EMSA. Background: A gel shift assay detects complexes by their altered migration in electrophoresis.
For assay [6], the target named is SctV, full length, untagged, plasmid-borne in E. coli C41 (enteropathogenic E. coli (EPEC)). Description: native gel or EMSA.

The term stoichiometry N denotes the number of molecules, sites or subunits per partner or assembly. Take “His-SctV-C, isolated C-terminal cytoplasmic domain of EPEC SctV (domain or fragment)”: the stoichiometry N in assay [1], in assay [2] and in assay [3] was 9 throughout.
With “His-SctV, full length, synthesized in C41; also reconstituted in peptidiscs (His-SctV9-PR) (natural protein)”, the stoichiometry N in assay [4] and in assay [5] was 9 in each case.
Turning to “SctV, full length, untagged, plasmid-borne in E. coli C41 (natural protein)”, the stoichiometry N in assay [6] is 9.
